The source of these data is paper PMC11417369, “DNA sequence and chromatin differentiate sequence-specific transcription factor binding in the human malaria parasite Plasmodium falciparum”.

First the molecules themselves.
T1: AP2-LT D1 (Plasmodium falciparum, UniProt Q8IAM1 2520-2577)
T1 sequence: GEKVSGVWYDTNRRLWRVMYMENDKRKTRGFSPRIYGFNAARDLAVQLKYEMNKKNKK

B1: CACACA_negctrl_site1157 (dsDNA)
DNA 1: TTTTTGTATTCTACCTTAACAATCTTAAAGATTTTT
DNA 2: AAAAATCTTTAAGATTGTTAAGGTAGAATACAAAAA
B2: CACACA_negctrl_site949 (dsDNA)
DNA 1: TATATATGGGTACTAATTCCTTTAATTTCTTTAATT
DNA 2: AATTAAAGAAATTAAAGGAATTAGTACCCATATATA
B3: CACACA_negctrl_site1698 (dsDNA)
DNA 1: TTATAATAAAAAAATTCCTAAGTCCGTATATATTAT
DNA 2: ATAATATATACGGACTTAGGAATTTTTTTATTATAA
B4: CACACA_negctrl_site1412 (dsDNA)
DNA 1: TATATTTGGTTTCATTCATTTTTATAGAAATCTCAA
DNA 2: TTGAGATTTCTATAAAAATGAATGAAACCAAATATA
B5: CACACA_negctrl_site996 (dsDNA)
DNA 1: GAAAAAAAAAAAAAAAAAAAAAGGAAAAAAGTGAAA
DNA 2: TTTCACTTTTTTCCTTTTTTTTTTTTTTTTTTTTTC
B6: CACACA_negctrl_site908 (dsDNA)
DNA 1: TTATGGATGGACAATAATAAAATTTTTACTTTTATT
DNA 2: AATAAAAGTAAAAATTTTATTATTGTCCATCCATAA
B7: CACACA_negctrl_site122 (dsDNA)
DNA 1: TCTGGATTGGATTACAAGAAAATAAAATATAAAATA
DNA 2: TATTTTATATTTTATTTTCTTGTAATCCAATCCAGA
B8: CACACA_negctrl_site1031 (dsDNA)
DNA 1: ATTATTTGAACAACAAAAAAAAAGAAAAGAAAAGAA
DNA 2: TTCTTTTCTTTTCTTTTTTTTTGTTGTTCAAATAAT
B9: CACACA_negctrl_site1333 (dsDNA)
DNA 1: AATTAAGTTAAACATTAAAAAAAACAAAAAATTAAA
DNA 2: TTTAATTTTTTGTTTTTTTTAATGTTTAACTTAATT
B10: CACACA_negctrl_site982 (dsDNA)
DNA 1: ATTTTTTTTTTTTTTTTTTTTTTTTTTGAATTCACA
DNA 2: TGTGAATTCAAAAAAAAAAAAAAAAAAAAAAAAAAT
B11: CACACA_negctrl_site94 (dsDNA)
DNA 1: TTTTTTTTTTTTTTTTTTTTTTTCTACCTATTTATT
DNA 2: AATAAATAGGTAGAAAAAAAAAAAAAAAAAAAAAAA
B12: CACACA_negctrl_site1417 (dsDNA)
DNA 1: AAAAATATTATGATGTTTATTAGAAAGGAAAAAACT
DNA 2: AGTTTTTTCCTTTCTAATAAACATCATAATATTTTT
B13: CACACA_negctrl_site377 (dsDNA)
DNA 1: GTATAACAACTGATAAAAGAAAAAAAATTTATTATT
DNA 2: AATAATAAATTTTTTTTCTTTTATCAGTTGTTATAC
B14: CACACA_negctrl_site1666 (dsDNA)
DNA 1: AAAAAAAAAAAAAAATTAAAGTAATGGAAAAAAAAA
DNA 2: TTTTTTTTTCCATTACTTTAATTTTTTTTTTTTTTT
B15: CACACA_negctrl_site97 (dsDNA)
DNA 1: AATAAAGGAAATAAATAATTTATTTTGTAAAATATG
DNA 2: CATATTTTACAAAATAAATTATTTATTTCCTTTATT
B16: CACACA_negctrl_site667 (dsDNA)
DNA 1: TTATATATAAACATAAAAAGAAATATATTATGTATA
DNA 2: TATACATAATATATTTCTTTTTATGTTTATATATAA
B17: CACACA_negctrl_site1682 (dsDNA)
DNA 1: TGTTATATCAATAATATATAATAATACCCTTCTTTT
DNA 2: AAAAGAAGGGTATTATTATATATTATTGATATAACA
B18: CACACA_negctrl_site1075 (dsDNA)
DNA 1: AATAAAAAAAAAAAAAAAAAAAAAAAGACACTAAAA
DNA 2: TTTTAGTGTCTTTTTTTTTTTTTTTTTTTTTTTATT
B19: CACACA_negctrl_site1633 (dsDNA)
DNA 1: AAAAATTAAAATATAACTAATTAATTTGTATTCATT
DNA 2: AATGAATACAAATTAATTAGTTATATTTTAATTTTT
B20: CACACA_negctrl_site1493 (dsDNA)
DNA 1: TGTTCTTATTTTATAAGCATATAATTAATCATAATG
DNA 2: CATTATGATTAATTATATGCTTATAAAATAAGAACA
B21: CACACA_negctrl_site338 (dsDNA)
DNA 1: TCGTCTCAATAATTATAATAAAAAAATTCCTAAGTC
DNA 2: GACTTAGGAATTTTTTTATTATAATTATTGAGACGA
B22: CACACA_negctrl_site1268 (dsDNA)
DNA 1: ATATTTTTATGATGTATCCAAGAAATGGAACTATAT
DNA 2: ATATAGTTCCATTTCTTGGATACATCATAAAAATAT
B23: CACACA_negctrl_site766 (dsDNA)
DNA 1: TTCTTTCTGTTTTATTTATAATAATTTATGATAAAA
DNA 2: TTTTATCATAAATTATTATAAATAAAACAGAAAGAA
B24: CACACA_negctrl_site81 (dsDNA)
DNA 1: TTCTGTATAATATAAAAACAAAAATTAAATTAAAAC
DNA 2: GTTTTAATTTAATTTTTGTTTTTATATTATACAGAA
B25: CACACA_negctrl_site1605 (dsDNA)
DNA 1: GTTTTTTTATAAAATTTTTATATAATTCTTTTATAA
DNA 2: TTATAAAAGAATTATATAAAAATTTTATAAAAAAAC
B26: CACACA_negctrl_site847 (dsDNA)
DNA 1: TTTTAAAATAAAAAAATAAAAAAAGGGGAAAAAAAA
DNA 2: TTTTTTTTCCCCTTTTTTTATTTTTTTATTTTAAAA
B27: CACACA_negctrl_site1475 (dsDNA)
DNA 1: AATGATTTTCAATCGAAATGAAACTTAGAAGATATA
DNA 2: TATATCTTCTAAGTTTCATTTCGATTGAAAATCATT
B28: CACACA_negctrl_site1062 (dsDNA)
DNA 1: TTATATGCATCCAAAAAGGAATGTTTTTAGAGAATC
DNA 2: GATTCTCTAAAAACATTCCTTTTTGGATGCATATAA
B29: CACACA_negctrl_site687 (dsDNA)
DNA 1: GTTAAACATCTTCTGTGATATGTTAGAATATTATTT
DNA 2: AAATAATATTCTAACATATCACAGAAGATGTTTAAC
B30: CACACA_negctrl_site1656 (dsDNA)
DNA 1: TTTTGATCTGAAGGAACCTAAAAAGGGAAGAGAAAA
DNA 2: TTTTCTCTTCCCTTTTTAGGTTCCTTCAGATCAAAA

In the data set the target is T1, AP2-LT D1. In words: gcPBM; about 25 ug protein; PBS, 1% milk, 0.2 mg/ml BSA, salmon testes DNA, 0.03% Triton X-100. As to conditions: tags: N-terminal GST (pGEX-4T-1), kept; label: surface-attached array probe.
With B1, the binding signal was 8.8 ln median PBM intensity, better of two orientations.

As for B2, the binding signal was 8.85 ln median PBM intensity, better of two orientations.

B3: the binding signal was 8.75 ln median PBM intensity, better of two orientations.

As to B4, the binding signal was 8.84 ln median PBM intensity, better of two orientations.

For the molecule B5, the binding signal is 8.82 ln median PBM intensity, better of two orientations.

Take B6: the binding signal is 8.82 ln median PBM intensity, better of two orientations.

Regarding B7, the binding signal is 8.76 ln median PBM intensity, better of two orientations.

Regarding B8, the binding signal was 8.83 ln median PBM intensity, better of two orientations.

For the molecule B9, the binding signal was 8.76 ln median PBM intensity, better of two orientations.

For B10, the binding signal was 8.8 ln median PBM intensity, better of two orientations.

Turning to B11, the binding signal is 8.86 ln median PBM intensity, better of two orientations.

Turning to B12, the binding signal is 8.85 ln median PBM intensity, better of two orientations.

B13: the binding signal was 8.85 ln median PBM intensity, better of two orientations.

Regarding B14, the binding signal is 8.75 ln median PBM intensity, better of two orientations.

As to B15, the binding signal was 8.84 ln median PBM intensity, better of two orientations.

Turning to B16, the binding signal was 8.75 ln median PBM intensity, better of two orientations.

Consider B17, for which the binding signal is 8.8 ln median PBM intensity, better of two orientations.

With B18, the binding signal is 8.75 ln median PBM intensity, better of two orientations.

Consider B19, for which the binding signal was 8.76 ln median PBM intensity, better of two orientations.

Take B20: the binding signal was 8.77 ln median PBM intensity, better of two orientations.

For the molecule B21, the binding signal was 8.78 ln median PBM intensity, better of two orientations.

Regarding B22, the binding signal is 8.85 ln median PBM intensity, better of two orientations.

Consider B23, for which the binding signal was 8.74 ln median PBM intensity, better of two orientations.

B24: the binding signal was 8.74 ln median PBM intensity, better of two orientations.

Regarding B25, the binding signal is 8.77 ln median PBM intensity, better of two orientations.

For B26, the binding signal was 8.83 ln median PBM intensity, better of two orientations.

With B27, the binding signal was 8.78 ln median PBM intensity, better of two orientations.

For the molecule B28, the binding signal was 8.79 ln median PBM intensity, better of two orientations.

Turning to B29, the binding signal was 8.83 ln median PBM intensity, better of two orientations.

Take B30: the binding signal was 8.82 ln median PBM intensity, better of two orientations.
